Assay results reported in US20140363428A1 (Chugai, published 2014).

B1: IgG1-F1420 (antibody)
heavy: QVQLQESGPGLVKPSETLSLTCAVSGHSISHDHAWSWVRQPPGEGLEWIGFISYSGITNYNPSLQGRVTISRDNSKNTLYLQMNSLRAEDTAVYYCARSLARTTAMDYWGEGTLVTVSSASTKGPSVFPLAPSSKSTSGGTAALGCLVKDYFPEPVTVSWNSGALTSGVHTFPAVLQSSGLYSLSSVVTVPSSSLGTQTYICNVNHKPSNTKVDKKVEPKSCDKTHTCPPCPAPELRGGPKVFLFPPKPKDTLYISRTPEVTCVVVDVSHEDPEVKFNWYVDGVEVHNAKTKPREEQYNSTYRVVSVLTVLHQDWLNGKEYKCKVSNKALPAPIEKTISKAKGQPREPQVYTLPPSRDELTKNQVSLTCLVKGFYPSDIAVEWESNGQPENNYKTTPPVLDSDGSFFLYSKLTVDKSRWQQGNVFSCSVMHEALDWHVTKKELSLSP
light: not shown
B2: Fv-4-F1064 (antibody, human IgG1, kappa)
heavy: QVQLQESGPGLVKPSETLSLTCAVSGHSISHDHAWSWVRQPPGEGLEWIGFISYSGITNYNPSLQGRVTISRDNSKNTLYLQMNSLRAEDTAVYYCARSLARTTAMDYWGEGTLVTVSSASTKGPSVFPLAPSSKSTSGGTAALGCLVKDYFPEPVTVSWNSGALTSGVHTFPAVLQSSGLYSLSSVVTVPSSSLGTQTYICNVNHKPSNTKVDKKVEPKSCDKTHTCPPCPAPELLGGPSVFLFPPKPKDTLYISRTPEVTCVVVDVSHEDPEVKFNWYVDGVEVHNAKTKPREEQYNSTYRVVSVLTVLHQDWLNGKEYKCKVSNKALPAPIEKTISKAKGQPREPQVYTLPPSRDELTKNQVSLTCLVKGFYPSDIAVEWESNGQPENNYKTTPPVLDSDGSFFLYSKLTVDKSRWQQGNEFSCSVMHEALHYHVTQKSLSLSP
light: DIQMTQSPSSLSASVGDSVTITCQASTDISSHLNWYQQKPGKAPELLIYYGSHLLSGVPSRFSGSGSGTDFTFTISSLEAEDAATYYCGQGNRLPYTFGQGTKVEIERTVAAPSVFIFPPSDEQLKSGTASVVCLLNNFYPREAKVQWKVDNALQSGNSQESVTEQDSKDSTYSLSSTLTLSKADYEKHKVYACEVTHQGLSSPVTKSFNRGEC
B3: Fv-4-F1060 (antibody, human IgG1, kappa)
heavy: QVQLQESGPGLVKPSETLSLTCAVSGHSISHDHAWSWVRQPPGEGLEWIGFISYSGITNYNPSLQGRVTISRDNSKNTLYLQMNSLRAEDTAVYYCARSLARTTAMDYWGEGTLVTVSSASTKGPSVFPLAPSSKSTSGGTAALGCLVKDYFPEPVTVSWNSGALTSGVHTFPAVLQSSGLYSLSSVVTVPSSSLGTQTYICNVNHKPSNTKVDKKVEPKSCDKTHTCPPCPAPELLGGPSVFLFPPKPKDTLYISRTPEVTCVVVDVSHEDPEVKFNWYVDGVEVHNAKTKPREEQYNSTYRVVSVLTVLHQDWLNGKEYKCKVSNKALPAPIEKTISKAKGQPREPQVYTLPPSRDELTKNQVSLTCLVKGFYPSDIAVEWESNGSPENNYKTTPPVLDSDGSFFLYSKLTVDKSRWQQGNVFSCSVMHEALHYHVTQKSLSLSP
light: DIQMTQSPSSLSASVGDSVTITCQASTDISSHLNWYQQKPGKAPELLIYYGSHLLSGVPSRFSGSGSGTDFTFTISSLEAEDAATYYCGQGNRLPYTFGQGTKVEIERTVAAPSVFIFPPSDEQLKSGTASVVCLLNNFYPREAKVQWKVDNALQSGNSQESVTEQDSKDSTYSLSSTLTLSKADYEKHKVYACEVTHQGLSSPVTKSFNRGEC
B4: Fv-4-F1059 (antibody, human IgG1, kappa)
heavy: QVQLQESGPGLVKPSETLSLTCAVSGHSISHDHAWSWVRQPPGEGLEWIGFISYSGITNYNPSLQGRVTISRDNSKNTLYLQMNSLRAEDTAVYYCARSLARTTAMDYWGEGTLVTVSSASTKGPSVFPLAPSSKSTSGGTAALGCLVKDYFPEPVTVSWNSGALTSGVHTFPAVLQSSGLYSLSSVVTVPSSSLGTQTYICNVNHKPSNTKVDKKVEPKSCDKTHTCPPCPAPELLGGPSVFLFPPKPKDTLYISRTPEVTCVVVDVSHEDPEVKFNWYVDGVEVHNAKTKPREEQYNSTYRVVSVLTVLHQDWLNGKEYKCKVSNKALPAPIEKTISKAKGQPREPQVYTLPPSRDELTKNQVSLTCLVKGFYPSDIAVEWESNGRPENNYKTTPPVLDSDGSFFLYSKLTVDKSRWQQGNVFSCSVMHEALHYHVTQKSLSLSP
light: DIQMTQSPSSLSASVGDSVTITCQASTDISSHLNWYQQKPGKAPELLIYYGSHLLSGVPSRFSGSGSGTDFTFTISSLEAEDAATYYCGQGNRLPYTFGQGTKVEIERTVAAPSVFIFPPSDEQLKSGTASVVCLLNNFYPREAKVQWKVDNALQSGNSQESVTEQDSKDSTYSLSSTLTLSKADYEKHKVYACEVTHQGLSSPVTKSFNRGEC
B5: Fv-4-F1062 (antibody, human IgG1, kappa)
heavy: QVQLQESGPGLVKPSETLSLTCAVSGHSISHDHAWSWVRQPPGEGLEWIGFISYSGITNYNPSLQGRVTISRDNSKNTLYLQMNSLRAEDTAVYYCARSLARTTAMDYWGEGTLVTVSSASTKGPSVFPLAPSSKSTSGGTAALGCLVKDYFPEPVTVSWNSGALTSGVHTFPAVLQSSGLYSLSSVVTVPSSSLGTQTYICNVNHKPSNTKVDKKVEPKSCDKTHTCPPCPAPELLGGPSVFLFPPKPKDTLYISRTPEVTCVVVDVSHEDPEVKFNWYVDGVEVHNAKTKPREEQYNSTYRVVSVLTVLHQDWLNGKEYKCKVSNKALPAPIEKTISKAKGQPREPQVYTLPPSRDELTKNQVSLTCLVKGFYPSDIAVEWESNGQRENNYKTTPPVLDSDGSFFLYSKLTVDKSRWQQGNVFSCSVMHEALHYHVTQKSLSLSP
light: DIQMTQSPSSLSASVGDSVTITCQASTDISSHLNWYQQKPGKAPELLIYYGSHLLSGVPSRFSGSGSGTDFTFTISSLEAEDAATYYCGQGNRLPYTFGQGTKVEIERTVAAPSVFIFPPSDEQLKSGTASVVCLLNNFYPREAKVQWKVDNALQSGNSQESVTEQDSKDSTYSLSSTLTLSKADYEKHKVYACEVTHQGLSSPVTKSFNRGEC
B6: Fv-4-F947 (antibody, human IgG1, kappa)
heavy: QVQLQESGPGLVKPSETLSLTCAVSGHSISHDHAWSWVRQPPGEGLEWIGFISYSGITNYNPSLQGRVTISRDNSKNTLYLQMNSLRAEDTAVYYCARSLARTTAMDYWGEGTLVTVSSASTKGPSVFPLAPSSKSTSGGTAALGCLVKDYFPEPVTVSWNSGALTSGVHTFPAVLQSSGLYSLSSVVTVPSSSLGTQTYICNVNHKPSNTKVDKKVEPKSCDKTHTCPPCPAPELLGGPSVFLFPPKPKDVLYISRTPEVTCVVVDVSHEDPEVKFNWYVDGVEVHNAKTKPREEQYNSTYRVVSVLQPLHADWLNGKEYKCKVSNKALPAPIEKTISKAKGQPREPQVYTLPPSRDELTKNQVSLTCLVKGFYPSDIAVEWESNGQPENNYKTTPPVLDSDGSFFLYSKLTVDKSRWQQGNVFSCSVMHEALHYHVTQKSLSLSP
light: DIQMTQSPSSLSASVGDSVTITCQASTDISSHLNWYQQKPGKAPELLIYYGSHLLSGVPSRFSGSGSGTDFTFTISSLEAEDAATYYCGQGNRLPYTFGQGTKVEIERTVAAPSVFIFPPSDEQLKSGTASVVCLLNNFYPREAKVQWKVDNALQSGNSQESVTEQDSKDSTYSLSSTLTLSKADYEKHKVYACEVTHQGLSSPVTKSFNRGEC
B7: Fv-4-F1063 (antibody, human IgG1, kappa)
heavy: QVQLQESGPGLVKPSETLSLTCAVSGHSISHDHAWSWVRQPPGEGLEWIGFISYSGITNYNPSLQGRVTISRDNSKNTLYLQMNSLRAEDTAVYYCARSLARTTAMDYWGEGTLVTVSSASTKGPSVFPLAPSSKSTSGGTAALGCLVKDYFPEPVTVSWNSGALTSGVHTFPAVLQSSGLYSLSSVVTVPSSSLGTQTYICNVNHKPSNTKVDKKVEPKSCDKTHTCPPCPAPELLGGPSVFLFPPKPKDTLYISRTPEVTCVVVDVSHEDPEVKFNWYVDGVEVHNAKTKPREEQYNSTYRVVSVLTVLHQDWLNGKEYKCKVSNKALPAPIEKTISKAKGQPREPQVYTLPPSRDELTKNQVSLTCLVKGFYPSDIAVEWESNGQSENNYKTTPPVLDSDGSFFLYSKLTVDKSRWQQGNVFSCSVMHEALHYHVTQKSLSLSP
light: DIQMTQSPSSLSASVGDSVTITCQASTDISSHLNWYQQKPGKAPELLIYYGSHLLSGVPSRFSGSGSGTDFTFTISSLEAEDAATYYCGQGNRLPYTFGQGTKVEIERTVAAPSVFIFPPSDEQLKSGTASVVCLLNNFYPREAKVQWKVDNALQSGNSQESVTEQDSKDSTYSLSSTLTLSKADYEKHKVYACEVTHQGLSSPVTKSFNRGEC
B8: Fv-4-F1058 (antibody, human IgG1, kappa)
heavy: QVQLQESGPGLVKPSETLSLTCAVSGHSISHDHAWSWVRQPPGEGLEWIGFISYSGITNYNPSLQGRVTISRDNSKNTLYLQMNSLRAEDTAVYYCARSLARTTAMDYWGEGTLVTVSSASTKGPSVFPLAPSSKSTSGGTAALGCLVKDYFPEPVTVSWNSGALTSGVHTFPAVLQSSGLYSLSSVVTVPSSSLGTQTYICNVNHKPSNTKVDKKVEPKSCDKTHTCPPCPAPELLGGPSVFLFPPKPKDTLYISRTPEVTCVVVDVSHEDPEVKFNWYVDGVEVHNAKTKPREEQYNSTYRVVSVLTVLHQDWLNGKEYKCKVSNKALPAPIEKTISKAKGQPREPQVYTLPPSRDELTKNQVSLTCLVKGFYPSDIAVEWESNGEPENNYKTTPPVLDSDGSFFLYSKLTVDKSRWQQGNVFSCSVMHEALHYHVTQKSLSLSP
light: DIQMTQSPSSLSASVGDSVTITCQASTDISSHLNWYQQKPGKAPELLIYYGSHLLSGVPSRFSGSGSGTDFTFTISSLEAEDAATYYCGQGNRLPYTFGQGTKVEIERTVAAPSVFIFPPSDEQLKSGTASVVCLLNNFYPREAKVQWKVDNALQSGNSQESVTEQDSKDSTYSLSSTLTLSKADYEKHKVYACEVTHQGLSSPVTKSFNRGEC
B9: Fv-4-F1061 (antibody, human IgG1, kappa)
heavy: QVQLQESGPGLVKPSETLSLTCAVSGHSISHDHAWSWVRQPPGEGLEWIGFISYSGITNYNPSLQGRVTISRDNSKNTLYLQMNSLRAEDTAVYYCARSLARTTAMDYWGEGTLVTVSSASTKGPSVFPLAPSSKSTSGGTAALGCLVKDYFPEPVTVSWNSGALTSGVHTFPAVLQSSGLYSLSSVVTVPSSSLGTQTYICNVNHKPSNTKVDKKVEPKSCDKTHTCPPCPAPELLGGPSVFLFPPKPKDTLYISRTPEVTCVVVDVSHEDPEVKFNWYVDGVEVHNAKTKPREEQYNSTYRVVSVLTVLHQDWLNGKEYKCKVSNKALPAPIEKTISKAKGQPREPQVYTLPPSRDELTKNQVSLTCLVKGFYPSDIAVEWESNGQEENNYKTTPPVLDSDGSFFLYSKLTVDKSRWQQGNVFSCSVMHEALHYHVTQKSLSLSP
light: DIQMTQSPSSLSASVGDSVTITCQASTDISSHLNWYQQKPGKAPELLIYYGSHLLSGVPSRFSGSGSGTDFTFTISSLEAEDAATYYCGQGNRLPYTFGQGTKVEIERTVAAPSVFIFPPSDEQLKSGTASVVCLLNNFYPREAKVQWKVDNALQSGNSQESVTEQDSKDSTYSLSSTLTLSKADYEKHKVYACEVTHQGLSSPVTKSFNRGEC

Target: T1, soluble human FcRn (human, UniProt P55899 24-297; P61769 21-119)
T1 construct: Heterodimer of alpha chain and beta2-microglobulin; also called hFcRn
T1 sequence (P55899 24-297 limits assumed, chain 1 of 2): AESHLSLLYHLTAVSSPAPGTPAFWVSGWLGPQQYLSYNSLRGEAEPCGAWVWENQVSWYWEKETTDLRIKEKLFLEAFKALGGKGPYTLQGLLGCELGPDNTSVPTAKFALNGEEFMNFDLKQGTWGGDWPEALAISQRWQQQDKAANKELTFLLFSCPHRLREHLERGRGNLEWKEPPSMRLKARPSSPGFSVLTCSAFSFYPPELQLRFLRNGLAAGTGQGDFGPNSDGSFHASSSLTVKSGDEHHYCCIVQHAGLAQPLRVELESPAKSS
T1 sequence (P61769 21-119 limits assumed, chain 2 of 2): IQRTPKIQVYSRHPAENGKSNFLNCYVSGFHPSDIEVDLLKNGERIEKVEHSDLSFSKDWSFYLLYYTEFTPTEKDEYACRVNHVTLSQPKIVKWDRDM
Assay: SPR (Biacore), pH 7.0

Work on B1 yielded a Kd of 130 nM.

Target: T1, soluble human FcRn
Assay: SPR (Biacore), pH 7.0, 25 C;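 also: antibodies captured on a protein L-coated CM4 chip with human FcRn injected as analyte, KD obtained from ka and kd fitted to sensorgrams, in sodium phosphate buffer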
Protocol: An appropriate amount of protein L (ACTIGEN) was immobilized onto Sensor chip CM4 (GE Healthcare) by the amino coupling method, and the chip was allowed to capture an antibody of interest. Then, diluted FcRn solutions and running buffer (as a reference solution) were injected to allow human FcRn to interact with the antibody captured on the sensor chip. The running buffer used comprised 50 mmol/l sodium phosphate, 150 mmol/l NaCl, and 0.05% (w/v) Tween20 (pH 7.0). FcRn was diluted using each buffer. The chip was regenerated using 10 mmol/l glycine-HCl (pH 1.5). Assays were carried out exclusively at 25 degrees C. The association rate constant ka (1/Ms) and dissociation rate constant kd (1/s), both of which are kinetic parameters, were calculated based on the sensorgrams obtained in the assays, and KD (M) of each antibody for human FcRn was determined from these values. Each parameter was calculated using Biacore T100 Evaluation Software (GE Healthcare).

For B1, the Kd was 130 nM.

Target: T1, soluble human FcRn
Assay: SPR (Biacore), pH 7.0
Remark: another data set of the same source

Point of comparison: B7, Kd 140 nM. Against it:
- B2 — within 1.5-fold, 130 nM
- B3 — the same, 140 nM
- B4 — the same, 140 nM
- B5 — within 1.5-fold, 120 nM
- B6 — 13-fold lower, 11.1 nM
- B8 — within 1.5-fold, 130 nM
- B9 — within 1.5-fold, 120 nM
